In patent US8835617B2, “Polynucleotides encoding a human TRIM-Cyp fusion polypeptide, compositions thereof, and methods of using same” (priority 2008, dated 2014) one finds IL-2 production, proliferation and cell-surface marker expression data, which are given here for one substance.

For the series, the system named is primary human CD4+ T cells. Briefly: Proliferation, IL-2 production and surface markers of transduced primary CD4+ T cells. The series is classed as cell-based. The source says: The functions of endogenous CypA and T5 in hCD4^+ T cells remain largely uncharacterized. […] This complex inhibits T cell function by binding to the serine/threonine phosphatase calcineurin and blocking downstream signaling events (Handschumacher et al., 1984; Liu et al., 1991). Functionally, CypA is a peptidyl-prolyl isomerase (PPiase) which catalyses the rate-limiting cis-trans interconversion of peptide bonds N-terminal to proline, an enzymatic activity not required for immunosuppression via CsA (Fischer et al., 1984; Liu et al., 1991; Schmid, 1995). The peptidyl-prolyl isomerases are represented by three structurally distinct families: cyclophilins, FKBPs, and parvulins. Given their astounding evolutionary persistence, from some archeabacteria to all mammals, cyclophilins are not well understood (Colgan et al., 2000; Gothel and Marahiel, 1999).
Activated, scAPLS-transduced primary human CD4^+ T cells were maintained in culture for 6 days. 1×10^5 cells were transferred in triplicate into 96-well flat-bottom microplates (Falcon) and labeled for 18 h with […] of ^[3H]thymidine (GE-Amersham). The DNA-incorporated radioactivity was measured by liquid scintillation counting. Data were expressed as mean corrected counts per minute (ccpm) of […] cultures.
IL-2 producing capacity of hT5Cyp-expressing primary human T cells was assessed after stimulation for 6 h with 100 nM PMA and 1 μg/ml Ionomycin (Sigma-Aldrich). Brefeldin A (Sigma-Aldrich) was added at 10 μg/ml during the last 4 h of stimulation.
The following antibodies were used for cell surface stains of primary CD4^+ T cells: α-CD4 (RPA-T4), α-CXCR4 (12G5), and α-MHC I (HLA A, B, C) (G46-2.6) (all from BD-Pharmingen).

Turning to “hT5Cyp: human TRIM5α fused at serine 322 to human cyclophilin A, SEQ ID NO:12”, the IL-2 production entry (PMA and ionomycin) is recorded as “produced comparable amounts of IL-2”. For the same substance, the proliferation entry (thymidine incorporation vs untransduced) was “proliferated at the same rate as untransduced cells”. In addition, for the setting “vs untransduced”, the cell-surface marker expression result is “expressed the same level of cell-surface CD4, CXCR4, and MHC I”.
